This is an account of results in patent US12539272B2, “Microemulsion-based vaccine delivery system, preparation method therefor and use thereof” (Sichuan University, priority 2020, dated 2026).

The subject of one test is DC2.4 cells. Briefly: Uptake of the microemulsion vaccine system by the DC2.4 cells (flow cytometer). The class given is cell-based. Particulars: 1.5 hours at 37° C. Here is the method:
Uptake of the aluminum hydroxide microemulsion vaccine system by the DC2.4 cells: 1×10^6 DC2.4 cells are implanted in each well of a 12-well plate, put into an incubator for 4-6 hours, 5 μg of FITC labeled OVA or the aluminum hydroxide microemulsion entrapping the same amount of the FITC labeled OVA and prepared according to embodiment 6 are added into each well after cell anchorage. Supernatants are discarded after uptake for 1.5 hours at 37° C., cell surfaces are washed with PBS two times slightly, and then directly blown with the PBS, and the cells are centrifugally washed twice at 2000 rpm for 3 min, finally re-suspended by using 400 μl of PBS, and tested by a flow cytometer. […] In the figure, the Free OVA represents free FITC labeled OVA, and NE-OVA represents the aluminum hydroxide microemulsion entrapping the FITC labeled OVA.
Uptake of the ferric hydroxide microemulsion vaccine system by the DC2.4 cells: 1×10^6 DC2.4 cells are implanted in each well of a 12-well plate, and put into an incubator for 4-6 hours, and 2 μg of FITC labeled melanoma antigen peptide GP100 (ITDQVPFSV) or the ferric hydroxide microemulsion entrapping the same amount of the FITC labeled melanoma antigen peptide GP100 (ITDQVPFSV) prepared according to embodiment 9 is added into each well after cell anchorage. […]

Another test relates to mice. The test is described as follows: Cytotoxic T lymphocyte (CTL) test by CFSE staining method in immunized mice. The class given is in vivo. Conditions: 25 μl into paws of mice on Day 0, 7, 14; 5 μg OVA, 0.5 μg CpG; CTL on Day 21. Here is the method: Cytotoxic T lymphocyte (CTL) test and immune antibody testing of the aluminum hydroxide microemulsion vaccine system: 25 μl of the aluminum hydroxide microemulsion entrapping OVA and prepared in embodiment 6, the aluminum hydroxide microemulsion entrapping OVA and CpG and prepared in embodiment 7, and free OVA or free OVA and CpG (including 5 μg of OVA and 0.5 μg of CpG) are injected into paws of immunized mice on Day 0, Day 7 and Day 14, and CTL response in the body is tested by a CFSE staining method on Day 21. […] In the figure, OVA represents free OVA, NE-OVA represents the aluminum hydroxide microemulsion entrapping OVA, OVA+CpG represents free OVA and CpG, and NE-OVA-CpG represents the aluminum hydroxide microemulsion entrapping OVA and CpG.

Regarding “melanoma antigen peptide GP100 (ITDQVPFSV) [Free-GP100, reference compound]”, the “uptake by the DC2.4 cells (in words)” value in the test with DC2.4 cells (2 μg FITC labeled GP100 per well) was “barely taken up”.

B1: chicken ovalbumin (protein, UniProt P01012 2-386, looked up)
Ovalbumin: GSIGAASMEFCFDVFKELKVHHANENIFYCPIAIMSALAMVYLGAKDSTRTQINKVVRFDKLPGFGDSIEAQCGTSVNVHSSLRDILNQITKPNDVYSFSLASRLYAEERYPILPEYLQCVKELYRGGLEPINFQTAADQARELINSWVESQTNGIIRNVLQPSSVDSQTAMVLVNAIVFKGLWEKAFKDEDTQAMPFRVTEQESKPVQMMYQIGLFRVASMASEKMKILELPFASGTMSMLVLLPDEVSGLEQLESIINFEKLTEWTSSNVMEERKIKVYLPRMKMEEKYNLTSVLMAMGITDVFSSSANLSGISSAESLKISQAVHAAHAEINEAGREVVGSAEAGVDAASVSEEFRADHPFLFCIKHIATNAVLFFGRCVSP
modifications: FITC label in uptake test
notes: free model antigen chicken ovalbumin (OVA); FITC labeled in the uptake test
For B1, in the test with mice, the “antigen-specific cellular immune response (CTL)” value was “cannot induce the antigen-specific cellular immune response”. The “uptake by the DC2.4 cells (in words)” value with DC2.4 cells (5 μg FITC labeled OVA per well) is “barely taken up”.
